Measured values taken from patent US20140087995A1 (published 2014).
Numbered stars: 1 amine (or outer) side, 2 acyl side, 3 side chain; on linkers, the order of the positions; unused ones are H or OH. Bridge positions count the residues as written; N and C are the ends. Side chains are listed from the residue outwards. Ends that are not written are not given here. * marks the point of attachment. C20 diacid = O=C(O)CCCCCCCCCCCCCCCCCCC(=O)*; γGlu = O=C(O)[C@H](CCC(=O)[*:2])N[*:1]; AEEA = NCCOCCOCC(=O)O

T1: human amylin receptor (amylin 3(a) receptor: human calcitonin receptor co-expressed with RAMP-3) (human, UniProt P30988 25-474; O60896 24-148, limits assumed)
T1 sequence (looked up) 1: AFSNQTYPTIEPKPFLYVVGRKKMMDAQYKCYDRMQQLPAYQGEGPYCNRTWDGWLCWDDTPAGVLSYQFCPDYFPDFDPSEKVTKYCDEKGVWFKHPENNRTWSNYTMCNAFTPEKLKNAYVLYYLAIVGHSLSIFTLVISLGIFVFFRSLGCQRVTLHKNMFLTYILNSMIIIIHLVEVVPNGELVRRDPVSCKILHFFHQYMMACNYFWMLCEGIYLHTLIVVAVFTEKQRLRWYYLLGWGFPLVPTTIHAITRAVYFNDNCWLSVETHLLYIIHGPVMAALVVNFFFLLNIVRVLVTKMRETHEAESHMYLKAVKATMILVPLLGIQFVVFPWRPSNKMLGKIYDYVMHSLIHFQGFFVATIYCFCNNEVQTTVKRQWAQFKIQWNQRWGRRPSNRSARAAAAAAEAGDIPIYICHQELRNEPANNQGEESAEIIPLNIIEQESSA
T1 sequence (looked up) 2: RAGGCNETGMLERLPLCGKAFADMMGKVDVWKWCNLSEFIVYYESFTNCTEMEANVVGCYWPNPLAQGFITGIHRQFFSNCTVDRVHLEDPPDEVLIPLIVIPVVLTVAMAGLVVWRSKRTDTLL

T2: human calcitonin receptor (human, UniProt P30988 25-474)
T2 sequence (looked up): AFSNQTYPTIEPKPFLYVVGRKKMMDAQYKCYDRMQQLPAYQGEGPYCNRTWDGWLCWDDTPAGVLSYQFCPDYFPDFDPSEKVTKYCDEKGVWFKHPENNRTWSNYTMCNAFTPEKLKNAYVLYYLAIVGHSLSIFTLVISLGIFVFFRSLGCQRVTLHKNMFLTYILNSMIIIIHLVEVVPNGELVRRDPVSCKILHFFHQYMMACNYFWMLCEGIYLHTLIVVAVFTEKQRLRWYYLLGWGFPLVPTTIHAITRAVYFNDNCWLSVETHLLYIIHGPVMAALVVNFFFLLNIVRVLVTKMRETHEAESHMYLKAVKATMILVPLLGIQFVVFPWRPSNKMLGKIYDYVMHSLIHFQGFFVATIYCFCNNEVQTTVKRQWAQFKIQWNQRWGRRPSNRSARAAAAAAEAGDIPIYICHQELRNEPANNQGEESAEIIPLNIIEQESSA

B1: N^ε1-[2-[2-[2-[[(4S)-4-carboxy-4-(19-carboxynonadecanoylamino)butanoyl]amino]ethoxy]ethoxy]acetyl]-[Arg17,Pro21,Pro27,Pro31,His35]-h-amylin (peptide)
peptide: K([AEEA-γGlu-C20 diacid])CNTATCATQRLANFLRHSSPNFGAIPSSTPVGSHTY-NH2
modifications: disulfide 2-7; N-terminus assumed
SMILES: CC[C@H](C)[C@H](NC(=O)[C@H](C)NC(=O)CNC(=O)[C@H](Cc1ccccc1)NC(=O)[C@H](CC(N)=O)NC(=O)[C@@H]1CCCN1C(=O)[C@H](CO)NC(=O)[C@H](CO)NC(=O)[C@H](Cc1c[nH]cn1)NC(=O)[C@H](CCCNC(=N)N)NC(=O)[C@H](CC(C)C)NC(=O)[C@H](Cc1ccccc1)NC(=O)[C@H](CC(N)=O)NC(=O)[C@H](C)NC(=O)[C@H](CC(C)C)NC(=O)[C@H](CCCNC(=N)N)NC(=O)[C@H](CCC(N)=O)NC(=O)[C@@H](NC(=O)[C@H](C)NC(=O)[C@@H]1CSSC[C@H](NC(=O)[C@@H](N)CCCCNC(=O)COCCOCCNC(=O)CC[C@H](NC(=O)CCCCCCCCCCCCCCCCCCC(=O)O)C(=O)O)C(=O)N[C@@H](CC(N)=O)C(=O)N[C@@H]([C@@H](C)O)C(=O)N[C@@H](C)C(=O)N[C@@H]([C@@H](C)O)C(=O)N1)[C@@H](C)O)C(=O)N1CCC[C@H]1C(=O)N[C@@H](CO)C(=O)N[C@@H](CO)C(=O)N[C@H](C(=O)N1CCC[C@H]1C(=O)N[C@H](C(=O)NCC(=O)N[C@@H](CO)C(=O)N[C@@H](Cc1c[nH]cn1)C(=O)N[C@H](C(=O)N[C@@H](Cc1ccc(O)cc1)C(N)=O)[C@@H](C)O)C(C)C)[C@@H](C)O
notes: also called compound 57
B2: N^ε1-[2-[2-[2-[[(4S)-4-carboxy-4-(19-carboxynonadecanoylamino)butanoyl]amino]ethoxy]ethoxy]acetyl]-[Arg17,Pro21,Pro27,Pro34]-h-amylin (peptide)
peptide: K([AEEA-γGlu-C20 diacid])CNTATCATQRLANFLRHSSPNFGAIPSSTNVGPNTY-NH2
modifications: disulfide 2-7; N-terminus assumed
SMILES: CC[C@H](C)[C@H](NC(=O)[C@H](C)NC(=O)CNC(=O)[C@H](Cc1ccccc1)NC(=O)[C@H](CC(N)=O)NC(=O)[C@@H]1CCCN1C(=O)[C@H](CO)NC(=O)[C@H](CO)NC(=O)[C@H](Cc1c[nH]cn1)NC(=O)[C@H](CCCNC(=N)N)NC(=O)[C@H](CC(C)C)NC(=O)[C@H](Cc1ccccc1)NC(=O)[C@H](CC(N)=O)NC(=O)[C@H](C)NC(=O)[C@H](CC(C)C)NC(=O)[C@H](CCCNC(=N)N)NC(=O)[C@H](CCC(N)=O)NC(=O)[C@@H](NC(=O)[C@H](C)NC(=O)[C@@H]1CSSC[C@H](NC(=O)[C@@H](N)CCCCNC(=O)COCCOCCNC(=O)CC[C@H](NC(=O)CCCCCCCCCCCCCCCCCCC(=O)O)C(=O)O)C(=O)N[C@@H](CC(N)=O)C(=O)N[C@@H]([C@@H](C)O)C(=O)N[C@@H](C)C(=O)N[C@@H]([C@@H](C)O)C(=O)N1)[C@@H](C)O)C(=O)N1CCC[C@H]1C(=O)N[C@@H](CO)C(=O)N[C@@H](CO)C(=O)N[C@H](C(=O)N[C@@H](CC(N)=O)C(=O)N[C@H](C(=O)NCC(=O)N1CCC[C@H]1C(=O)N[C@@H](CC(N)=O)C(=O)N[C@H](C(=O)N[C@@H](Cc1ccc(O)cc1)C(N)=O)[C@@H](C)O)C(C)C)[C@@H](C)O
notes: also called compound 50
B3: N^ε1-[2-[2-[2-[[(4S)-4-carboxy-4-(19-carboxynonadecanoylamino)butanoyl]amino]ethoxy]ethoxy]acetyl]-[Gly14,Arg17,Pro21,Pro27,Pro31]-h-amylin (peptide)
peptide: K([AEEA-γGlu-C20 diacid])CNTATCATQRLAGFLRHSSPNFGAIPSSTPVGSNTY-NH2
modifications: disulfide 2-7; N-terminus assumed
SMILES: CC[C@H](C)[C@H](NC(=O)[C@H](C)NC(=O)CNC(=O)[C@H](Cc1ccccc1)NC(=O)[C@H](CC(N)=O)NC(=O)[C@@H]1CCCN1C(=O)[C@H](CO)NC(=O)[C@H](CO)NC(=O)[C@H](Cc1c[nH]cn1)NC(=O)[C@H](CCCNC(=N)N)NC(=O)[C@H](CC(C)C)NC(=O)[C@H](Cc1ccccc1)NC(=O)CNC(=O)[C@H](C)NC(=O)[C@H](CC(C)C)NC(=O)[C@H](CCCNC(=N)N)NC(=O)[C@H](CCC(N)=O)NC(=O)[C@@H](NC(=O)[C@H](C)NC(=O)[C@@H]1CSSC[C@H](NC(=O)[C@@H](N)CCCCNC(=O)COCCOCCNC(=O)CC[C@H](NC(=O)CCCCCCCCCCCCCCCCCCC(=O)O)C(=O)O)C(=O)N[C@@H](CC(N)=O)C(=O)N[C@@H]([C@@H](C)O)C(=O)N[C@@H](C)C(=O)N[C@@H]([C@@H](C)O)C(=O)N1)[C@@H](C)O)C(=O)N1CCC[C@H]1C(=O)N[C@@H](CO)C(=O)N[C@@H](CO)C(=O)N[C@H](C(=O)N1CCC[C@H]1C(=O)N[C@H](C(=O)NCC(=O)N[C@@H](CO)C(=O)N[C@@H](CC(N)=O)C(=O)N[C@H](C(=O)N[C@@H](Cc1ccc(O)cc1)C(N)=O)[C@@H](C)O)C(C)C)[C@@H](C)O
notes: also called compound 71
B4: N^ε1-[2-[2-[2-[[(4S)-4-carboxy-4-(19-carboxynonadecanoylamino)butanoyl]amino]ethoxy]ethoxy]acetyl]-[Arg17,Pro21,Pro27,Pro34,His35]-h-amylin (peptide)
peptide: K([AEEA-γGlu-C20 diacid])CNTATCATQRLANFLRHSSPNFGAIPSSTNVGPHTY-NH2
modifications: disulfide 2-7; N-terminus assumed
SMILES: CC[C@H](C)[C@H](NC(=O)[C@H](C)NC(=O)CNC(=O)[C@H](Cc1ccccc1)NC(=O)[C@H](CC(N)=O)NC(=O)[C@@H]1CCCN1C(=O)[C@H](CO)NC(=O)[C@H](CO)NC(=O)[C@H](Cc1c[nH]cn1)NC(=O)[C@H](CCCNC(=N)N)NC(=O)[C@H](CC(C)C)NC(=O)[C@H](Cc1ccccc1)NC(=O)[C@H](CC(N)=O)NC(=O)[C@H](C)NC(=O)[C@H](CC(C)C)NC(=O)[C@H](CCCNC(=N)N)NC(=O)[C@H](CCC(N)=O)NC(=O)[C@@H](NC(=O)[C@H](C)NC(=O)[C@@H]1CSSC[C@H](NC(=O)[C@@H](N)CCCCNC(=O)COCCOCCNC(=O)CC[C@H](NC(=O)CCCCCCCCCCCCCCCCCCC(=O)O)C(=O)O)C(=O)N[C@@H](CC(N)=O)C(=O)N[C@@H]([C@@H](C)O)C(=O)N[C@@H](C)C(=O)N[C@@H]([C@@H](C)O)C(=O)N1)[C@@H](C)O)C(=O)N1CCC[C@H]1C(=O)N[C@@H](CO)C(=O)N[C@@H](CO)C(=O)N[C@H](C(=O)N[C@@H](CC(N)=O)C(=O)N[C@H](C(=O)NCC(=O)N1CCC[C@H]1C(=O)N[C@@H](Cc1c[nH]cn1)C(=O)N[C@H](C(=O)N[C@@H](Cc1ccc(O)cc1)C(N)=O)[C@@H](C)O)C(C)C)[C@@H](C)O
notes: also called compound 58
B5: N^ε1-[2-[2-[2-[[(4S)-4-carboxy-4-(19-carboxynonadecanoylamino)butanoyl]amino]ethoxy]ethoxy]acetyl]-[His14,Arg17,Pro21,Pro27,Pro31]-h-amylin (peptide)
peptide: K([AEEA-γGlu-C20 diacid])CNTATCATQRLAHFLRHSSPNFGAIPSSTPVGSNTY-NH2
modifications: disulfide 2-7; N-terminus assumed
SMILES: CC[C@H](C)[C@H](NC(=O)[C@H](C)NC(=O)CNC(=O)[C@H](Cc1ccccc1)NC(=O)[C@H](CC(N)=O)NC(=O)[C@@H]1CCCN1C(=O)[C@H](CO)NC(=O)[C@H](CO)NC(=O)[C@H](Cc1c[nH]cn1)NC(=O)[C@H](CCCNC(=N)N)NC(=O)[C@H](CC(C)C)NC(=O)[C@H](Cc1ccccc1)NC(=O)[C@H](Cc1c[nH]cn1)NC(=O)[C@H](C)NC(=O)[C@H](CC(C)C)NC(=O)[C@H](CCCNC(=N)N)NC(=O)[C@H](CCC(N)=O)NC(=O)[C@@H](NC(=O)[C@H](C)NC(=O)[C@@H]1CSSC[C@H](NC(=O)[C@@H](N)CCCCNC(=O)COCCOCCNC(=O)CC[C@H](NC(=O)CCCCCCCCCCCCCCCCCCC(=O)O)C(=O)O)C(=O)N[C@@H](CC(N)=O)C(=O)N[C@@H]([C@@H](C)O)C(=O)N[C@@H](C)C(=O)N[C@@H]([C@@H](C)O)C(=O)N1)[C@@H](C)O)C(=O)N1CCC[C@H]1C(=O)N[C@@H](CO)C(=O)N[C@@H](CO)C(=O)N[C@H](C(=O)N1CCC[C@H]1C(=O)N[C@H](C(=O)NCC(=O)N[C@@H](CO)C(=O)N[C@@H](CC(N)=O)C(=O)N[C@H](C(=O)N[C@@H](Cc1ccc(O)cc1)C(N)=O)[C@@H](C)O)C(C)C)[C@@H](C)O
notes: also called compound 61
B6: N^ε1-[2-[2-[2-[[(4S)-4-carboxy-4-(19-carboxynonadecanoylamino)butanoyl]amino]ethoxy]ethoxy]acetyl]-[Arg17,Pro21,Pro27,Pro31]-h-amylin (peptide)
peptide: K([AEEA-γGlu-C20 diacid])CNTATCATQRLANFLRHSSPNFGAIPSSTPVGSNTY-NH2
modifications: disulfide 2-7; N-terminus assumed
SMILES: CC[C@H](C)[C@H](NC(=O)[C@H](C)NC(=O)CNC(=O)[C@H](Cc1ccccc1)NC(=O)[C@H](CC(N)=O)NC(=O)[C@@H]1CCCN1C(=O)[C@H](CO)NC(=O)[C@H](CO)NC(=O)[C@H](Cc1c[nH]cn1)NC(=O)[C@H](CCCNC(=N)N)NC(=O)[C@H](CC(C)C)NC(=O)[C@H](Cc1ccccc1)NC(=O)[C@H](CC(N)=O)NC(=O)[C@H](C)NC(=O)[C@H](CC(C)C)NC(=O)[C@H](CCCNC(=N)N)NC(=O)[C@H](CCC(N)=O)NC(=O)[C@@H](NC(=O)[C@H](C)NC(=O)[C@@H]1CSSC[C@H](NC(=O)[C@@H](N)CCCCNC(=O)COCCOCCNC(=O)CC[C@H](NC(=O)CCCCCCCCCCCCCCCCCCC(=O)O)C(=O)O)C(=O)N[C@@H](CC(N)=O)C(=O)N[C@@H]([C@@H](C)O)C(=O)N[C@@H](C)C(=O)N[C@@H]([C@@H](C)O)C(=O)N1)[C@@H](C)O)C(=O)N1CCC[C@H]1C(=O)N[C@@H](CO)C(=O)N[C@@H](CO)C(=O)N[C@H](C(=O)N1CCC[C@H]1C(=O)N[C@H](C(=O)NCC(=O)N[C@@H](CO)C(=O)N[C@@H](CC(N)=O)C(=O)N[C@H](C(=O)N[C@@H](Cc1ccc(O)cc1)C(N)=O)[C@@H](C)O)C(C)C)[C@@H](C)O
notes: also called compound 49

Tests used:
[1] = molecular target: T1, human amylin receptor (amylin 3(a) …); experiment: cell-based or functional assay
[2] = molecular target: T2, human calcitonin receptor; experiment: cell-based or functional assay

| Binder | hAmylin-R funct. EC50 [1] | Ratio hCT/hAmylin funct. (hCTR EC50 against hAmylin-R EC50) [2] | hCTR funct. EC50 [2] |
| --- | --- | --- | --- |
| B1 | 89 pM | 35 | 3120 pM |
| B2 | 38 pM | 17.4 | 662 pM |
| B3 | 56 pM | 9.4 | 527 pM |
| B4 | 47 pM | 21.9 | 1030 pM |
| B5 | 51 pM | 10.9 | 554 pM |
| B6 | 106 pM | 22.5 | 2390 pM |
